Read-outs that look alike come from different tables or passages of the source.
Legend:
Assay in all cases: cell-based or functional assay
human IL-33 WT (R&D) [1] = target: T1, human IL-33 WT (R&D) (human, UniProt O95760 112-270)
T1 sequence: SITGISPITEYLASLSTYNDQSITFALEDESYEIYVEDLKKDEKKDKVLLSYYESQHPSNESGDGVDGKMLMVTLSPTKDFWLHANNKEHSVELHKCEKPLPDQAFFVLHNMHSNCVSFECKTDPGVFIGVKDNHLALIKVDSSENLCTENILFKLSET

[2] = target: T2, wild-type cynomolgus monkey IL-33 (cynomolgus monkey)
T2 chain: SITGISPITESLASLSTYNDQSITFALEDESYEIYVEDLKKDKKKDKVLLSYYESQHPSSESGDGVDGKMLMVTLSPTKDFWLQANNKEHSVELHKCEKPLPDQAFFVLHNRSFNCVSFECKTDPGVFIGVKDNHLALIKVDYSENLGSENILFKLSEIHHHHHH

[3] = target: T3, cynomolgus monkey IL-33 (cys mut) (cynomolgus monkey)
T3 chain: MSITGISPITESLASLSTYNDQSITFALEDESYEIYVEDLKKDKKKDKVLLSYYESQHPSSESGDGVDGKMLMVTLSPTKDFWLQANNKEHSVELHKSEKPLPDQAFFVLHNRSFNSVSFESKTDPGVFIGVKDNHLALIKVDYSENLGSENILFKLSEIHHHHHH

human IL-33 (mm2) [4] = target: T4, human IL-33 (mm2) (human, UniProt O95760 112-270)
T4 chain: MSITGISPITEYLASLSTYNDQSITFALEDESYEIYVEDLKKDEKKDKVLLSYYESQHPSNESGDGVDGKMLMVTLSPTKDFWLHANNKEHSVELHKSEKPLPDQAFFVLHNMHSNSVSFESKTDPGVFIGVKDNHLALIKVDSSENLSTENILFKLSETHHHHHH

human IL-33 WT (R&D) [5] = target: T1, human IL-33 WT (R&D); remark: listed apart in the source
human IL-33 (mm2) [6] = target: T4, human IL-33 (mm2)
human IL-33 WT (R&D) [7] = target: T1, human IL-33 WT (R&D); remark: listed apart in the source
human IL-33 (mm2) [8] = target: T4, human IL-33 (mm2)
human IL-33 WT (R&D) [9] = target: T1, human IL-33 WT (R&D); remark: listed apart in the source
[10] = target: T3, cynomolgus monkey IL-33 (cys mut)
human IL-33 (mm2) [11] = target: T4, human IL-33 (mm2)
human IL-33 (mm2) [12] = target: T4, human IL-33 (mm2)
human IL-33 WT (R&D) [13] = target: T1, human IL-33 WT (R&D); remark: listed apart in the source
[14] = target: T2, wild-type cynomolgus monkey IL-33
[15] = target: T3, cynomolgus monkey IL-33 (cys mut)
human IL-33 (mm2) [16] = target: T4, human IL-33 (mm2)

B1: IL33-158LS (antibody, human IgG1, kappa)
heavy: EVQLVESGGGLVQPGGSLRLSCAASGFTFSSYWMYWVRQAPGKGLEWVAAITPNAGEDYYPESVKGRFTISRDNAKNSLYLQMNSLRAEDTAVYYCARGHYYYTSYSLGYWGQGTLVTVSSASTKGPSVFPLAPSSKSTSGGTAALGCLVKDYFPEPVTVSWNSGALTSGVHTFPAVLQSSGLYSLSSVVTVPSSSLGTQTYICNVNHKPSNTKVDKKVEPKSCDKTHTCPPCPAPEAAGAPSVFLFPPKPKDTLMISRTPEVTCVVVDVSHEDPEVKFNWYVDGVEVHNAKTKPREEQYNSTYRVVSVLTVLHQDWLNGKEYKCKVSNKALPAPIEKTISKAKGQPREPQVYTLPPSREEMTKNQVSLTCLVKGFYPSDIAVEWESNGQPENNYKTTPPVLDSDGSFFLYSKLTVDKSRWQQGNVFSCSVLHEALHSHYTQKSLSLSPG
light: DIQMTQSPSSLSASVGDRVTITCKASQNINKHLDWYQQKPGKAPKLLIYFTNNLQTGVPSRFSGSGSGTDFTLTISSLQPEDFATYYCFQYNQGWTFGGGTKVEIKRTVAAPSVFIFPPSDEQLKSGTASVVCLLNNFYPREAKVQWKVDNALQSGNSQESVTEQDSKDSTYSLSSTLTLSKADYEKHKVYACEVTHQGLSSPVTKSFNRGEC
IC50, HEK293 ST2 NFkB (human IL-33 WT (R&D) [1]): 0.061 nM
Cynomolgus monkey:human IC50 ratio: wild-type IL-33 [2]: 9.2
IC50, HEK293 ST2 NFkB [2]: 0.562 nM
Cynomolgus monkey:human IC50 ratio: cysteine mutant IL-33 [3]: 1.4
IC50, HEK293 ST2 NFkB [3]: 0.013 nM
IC50, HEK293 ST2 NFkB (human IL-33 (mm2) [4]): 0.009 nM
IC50, human whole blood (human IL-33 WT (R&D) [5]): 0.868 nM
IC50, human whole blood (human IL-33 (mm2) [6]): 0.021 nM
IC50, HEK293 ST2 NFkB (human IL-33 WT (R&D) [7]): 2.66 nM
IC50, HEK293 ST2 NFkB (human IL-33 (mm2) [8]): 0.079 nM
IC50, HEK293 ST2 NFkB (human IL-33 WT (R&D) [9]): 0.983 nM
IC50, HEK293 ST2 NFkB [10]: 0.198 nM
IC50, HEK293 ST2 NFkB (human IL-33 (mm2) [11]): 0.162 nM
IC50, IFN-γ production in human PBMC (human IL-33 (mm2) [12]): 0.0014 nM
IC50, HEK293 ST2 NFkB (DTT-pretreated IL-33) (human IL-33 WT (R&D) [13]): 0.331 nM
Cynomolgus monkey:human IC50 ratio: wild-type IL-33 [14]: 4.2
IC50, HEK293 ST2 NFkB (DTT-pretreated IL-33) [14]: 1.39 nM
Cynomolgus monkey:human IC50 ratio: cysteine mutant IL-33 [15]: 1.8
IC50, HEK293 ST2 NFkB [15]: 0.034 nM
IC50, HEK293 ST2 NFkB (human IL-33 (mm2) [16]): 0.019 nM

Source: patent publication US20180037644A1 (Pfizer, published 2018)
